# Results reported in US9738884B2, “Therapeutic agent for epithelial and endothelial injury” (NIHON UNIVERSITY, priority 2012, dated 2017).
# B1: F9(47-191): peptide consisting of amino acids at positions 47 to 191 of SEQ ID NO: 8 (mouse F9) (protein, listed as Mus musculus)
# chain: YNSGKLEEFVRGNLERECIEERCSFEEAREVFENTEKTTEFWKQYVDGDQCESNPCLNGGICKDDISSYECWCQVGFEGRNCELDATCNIKNGRCKQFCKNSPDNKVICSCTEGYQLAEDQKSCEPTVPFPCGRASISYSSKKIT
# Test system: A431 cells
# Assay: Adhesion of A431 cells to the substrate, cells removed when the culture dish was shaken (Example 2)
# Type: cell-based
# Conditions: 1 pmol/ml, 96-well culture dish
# Method: FIG. 2 is a graph showing the results of Example 2 of the present application. The numerical value of the vertical axis indicates the number of cells removed from the bottom surface when a culture dish was shaken.
# A portion in the entire-length F9 (F9(47-471)), which has an activity of inducing spread of cells on a substrate, was determined using an ability to adhere to the substrate as an indicator. […] Thereafter, an F9 portion having an action to inhibit the aforementioned inhibitory action was examined under conditions in which a culture was performed at 37° C. for 24 hours and the culture dish was then shaken on a shaker. It is to be noted that F9(47-191) is a peptide consisting of amino acids at positions 47 to 191 in the amino acid sequence shown in SEQ ID NO: 8, and that F9(192-202) is a peptide consisting of amino acids at positions 192 to 202 in the amino acid sequence shown in SEQ ID NO: 8. […] Each of the numerical values (on the vertical axis) in the graph of FIG. 2 is indicated as a mean±SD (**: P<0.01). In addition, in FIG. 2, the term “47-191” indicates the conditions in which F9(47-191) was added, and the terms “47-471,” “192-236,” “192-216,” and “192-202” indicate the results obtained in the case of adding F9(47-471), F9(192-236), F9(192-216), and F9(192-202), respectively.
molecule,measurement,value
B1,action on adhesion between the cells and the substrate,action to inhibit adhesion between the cells and the substrate
